This passage reports Kd and IC50 results from the Immune Epitope Database (IEDB).

Experiment [1] addresses HLA-B*44:02. In words: IEDB peptide-MHC binding, purified MHC/competitive/radioactivity; filed as Kd, often an IC50 or EC50 that approximates it; ≥ and ≤ were set here for values at or beyond the usual limits of such assays.
The target of experiment [2] is HLA-B*44:03. The description is as above.
Experiment [3] deals with HLA-B*40:01. The experiment is described as above.
The target in experiment [4] is HLA-B*40:02. The experiment is described as above.
In experiment [5] the target is HLA-B*18:01. The experiment is described as above.
Experiment [6] deals with HLA-B*45:01. Described as above.
Experiment [7] has as its target HLA-A*31:01. Description: IEDB peptide-MHC binding, purified MHC/competitive/fluorescence; filed as Kd, often an IC50 or EC50 that approximates it; ≥ and ≤ were set here for values at or beyond the usual limits of such assays.
In experiment [8] the target is HLA-A*03:01. Described as above.
Experiment [9] deals with HLA-A*68:02. Description: IEDB peptide-MHC binding, purified MHC/competitive/radioactivity; filed as Kd, often an IC50 or EC50 that approximates it; ≥ and ≤ were set here for values at or beyond the usual limits of such assays.
Experiment [10] has as its target HLA-A*02:06. The experiment is described as above.
Experiment [11] addresses HLA-A*02:02. The description is as above.
Experiment [12] has as its target HLA-A*02:03. The experiment is described as above.
The target in experiment [13] is HLA-A*02:01. Described as above.
The target in experiment [14] is HLA-A*26:01. The experiment is described as above. The note with it: source organism: Dengue virus 3 Martinique/1243/1999.
Experiment [15] deals with HLA-A*03:01. In words: IEDB peptide-MHC binding, purified MHC/direct/fluorescence; filed as Kd, often an IC50 or EC50 that approximates it; ≥ and ≤ were set here for values at or beyond the usual limits of such assays.
Experiment [16] has as its target HLA-A*02:12. The experiment is described as above. To be noted: source organism: Bacillus cereus 03BB108.
In experiment [17] the target is HLA-A*11:01. Described as above. To be noted: source organism: West Nile virus.
In experiment [18] the target is HLA-A*11:01. In words: IEDB peptide-MHC binding, purified MHC/competitive/fluorescence; ≥ and ≤ were set here for values at or beyond the usual limits of such assays. The note with it: source organism: West Nile virus.
The target of experiment [19] is HLA-B*54:01. In words: IEDB peptide-MHC binding, purified MHC/competitive/radioactivity; filed as Kd, often an IC50 or EC50 that approximates it; ≥ and ≤ were set here for values at or beyond the usual limits of such assays. The note with it: source organism: Vaccinia virus WR.
In experiment [20] the target is HLA-B*07:02. Described as above. The note with it: source organism: Vaccinia virus WR.
The target in experiment [21] is HLA-B*53:01. Described as above. To be noted: source organism: Vaccinia virus WR.
For experiment [22], the target named is HLA-B*51:01. Described as above. To be noted: source organism: Vaccinia virus WR.
Experiment [23] deals with HLA-B*35:01. The description is as above. To be noted: source organism: Vaccinia virus WR.
Experiment [24] deals with HLA-A*11:01. The experiment is described as above. To be noted: source organism: Vaccinia virus WR.
[25] abbreviates: source organism: Mammarenavirus tacaribeense.
The mark [26] stands for this setting: source organism: Desulfitobacterium hafniense DCB-2.
Where [27] appears, read: source organism: Dengue virus 3 Martinique/1243/1999.
The mark [28] stands for this setting: source organism: Trypanosoma cruzi.
The mark [29] stands for this setting: source organism: Mammarenavirus brazilense.
Where [30] appears, read: source organism: SARS coronavirus Tor2.
The mark [31] stands for this setting: source organism: Mammarenavirus guanaritoense.
Setting [32] is: source organism: Mammarenavirus lassaense.
[33] abbreviates: source organism: Bacillus anthracis str. Tsiankovskii-I.
[34] abbreviates: source organism: West Nile virus.
Where [35] appears, read: source organism: Dengue virus 1 Brazil/97-11/1997.
Setting [36] is: source organism: Mammarenavirus juninense.
The mark [37] stands for this setting: source organism: Lymphocytic choriomeningitis virus (strain Armstrong).
The mark [38] stands for this setting: source organism: Vaccinia virus WR.
Where [39] appears, read: source organism: Lassa virus Josiah.

Bounds are passed on as bounds.

For AEFKSRFFVM, the Kd (as a rule, the constant that tells how readily two partners part at equilibrium) in [1] (setting [25]) is 192 nM; in [2] (setting [25]) it was 87.2 nM; in [3] (setting [25]) it was 41.6 nM; in experiment [4] (setting [25]) it was 3.57 nM; in [5] (setting [25]), 37.2 nM; in [6] (setting [25]) it was 290 nM.

For ALFAGDLYR, the Kd in [7] (setting [26]) is 3.9 nM; in experiment [8] (setting [26]), 12.9 nM.

In the case of CSAVPVHWV, the equilibrium dissociation constant (Kd) in experiment [9] (setting [27]) came out at 11.1 nM.

As for DVSRPTTVV, the Kd in [10] (setting [28]) is 12800 nM; in experiment [11] (setting [28]) it was 16300 nM; in experiment [9] (setting [28]) it was 37.7 nM; in experiment [12] (setting [28]) it was at least 38100 nM; in experiment [13] (setting [28]), at least 35900 nM.

As for EELSTLYEAL, the Kd in experiment [1] (setting [29]) came to 1890 nM; in experiment [2] (setting [29]) it was 595 nM; in experiment [3] (setting [29]) it was 1260 nM; in [4] (setting [29]) it was 121 nM; in [5] (setting [29]), 371 nM; in experiment [6] (setting [29]) it was 2080 nM.

Regarding EEVPNIIHEA, the dissociation constant (Kd) was at least 26900 nM in experiment [1] (setting [29]); 16000 nM in [2] (setting [29]); at least 20400 nM in experiment [3] (setting [29]); 790 nM in [4] (setting [29]); 12400 nM in experiment [5] (setting [29]); 269 nM in experiment [6] (setting [29]).

For the sequence ETYQLWTAL, the Kd in [14] is 181 nM; in experiment [9] (setting [27]) it was 3.39 nM.

Consider GEILLLEWLA, for which the Kd turned out to be 610 nM in experiment [1] (setting [30]); 110 nM in [2] (setting [30]); 20.3 nM in [3] (setting [30]); 16400 nM in [4] (setting [30]); 4670 nM in experiment [5] (setting [30]); 17.2 nM in experiment [6] (setting [30]).

As for GEQVDLGPVL, the Kd is at least 32700 nM in [1] (setting [31]); at least 43500 nM in experiment [2] (setting [31]); 9030 nM in experiment [3] (setting [31]); 52.6 nM in [4] (setting [31]); 12100 nM in experiment [5] (setting [31]); 1900 nM in [6] (setting [31]).

On to GMFDWESMK, for which the dissociation constant (Kd) stood at 208 nM in experiment [15] (source organism: Bacillus mycoides) and 744 nM in [16].

Turning to HDFGIPTPS, the Kd in experiment [1] (setting [32]) was at least 67100 nM; in experiment [2] (setting [32]) it was at least 78100 nM; in experiment [3] (setting [32]), 13700 nM; in experiment [4] (setting [32]), 76.6 nM; in experiment [5] (setting [32]), 18200 nM; in [6] (setting [32]), 1460 nM.

Take IISYFIFNR: the Kd was 22.5 nM in experiment [7] (setting [33]) and 304 nM in experiment [8] (setting [33]).

Take KSYETEYPK: the Kd in experiment [7] (setting [34]) amounted to 126 nM; in [15] (setting [34]) it was 728 nM; in [17], 7.7 nM. Also, in experiment [18], the IC50 (in general, the concentration at which inhibition is half-maximal) stood at 7880 nM.

LTMKEKSWLV: the Kd in experiment [10] (setting [35]) was found to be 73.8 nM; in experiment [9] (setting [35]), 250 nM.

As to MEKLKALVA, the dissociation constant Kd in experiment [1] (setting [30]) is 568 nM; in experiment [2] (setting [30]) it was 277 nM; in [3] (setting [30]), 152 nM; in experiment [4] (setting [30]), 176 nM; in [5] (setting [30]), 5490 nM; in experiment [6] (setting [30]), 24.1 nM.

For MTTIGIVLL, the Kd in experiment [9] (source organism: Dengue virus 2 Peru/IQT2913/1996) came to 50.1 nM.

NEYTGNYQCG: the Kd was at least 70200 nM in [1] (setting [30]); 7520 nM in [2] (setting [30]); at least 69600 nM in experiment [3] (setting [30]); at least 28500 nM in experiment [4] (setting [30]); at least 33400 nM in experiment [5] (setting [30]); 1790 nM in [6] (setting [30]).

As for PDYKRPGVS, the Kd in experiment [1] (setting [32]) is at least 77900 nM; in [2] (setting [32]), at least 54300 nM; in experiment [3] (setting [32]), at least 33800 nM; in experiment [4] (setting [32]), 17600 nM; in experiment [5] (setting [32]), at least 77500 nM; in [6] (setting [32]), at least 77700 nM.

Take PELELNVDAM: the Kd in experiment [1] (setting [36]) is at least 70200 nM; in [2] (setting [36]), at least 70100 nM; in experiment [3] (setting [36]) it was at least 69500 nM; in [4] (setting [36]), 796 nM; in experiment [5] (setting [36]), 367 nM; in experiment [6] (setting [36]), at least 70000 nM.

In the case of RELLGYCVSL, the dissociation constant (Kd) was found to be 1920 nM in [1] (setting [29]); 5060 nM in experiment [2] (setting [29]); 9820 nM in experiment [3] (setting [29]); 5.07 nM in [4] (setting [29]); 12800 nM in [5] (setting [29]); 4850 nM in experiment [6] (setting [29]).

On to RELYLNSSNV, for which the Kd in [1] (setting [30]) is 2160 nM; in experiment [2] (setting [30]) it was 1070 nM; in experiment [3] (setting [30]), 184 nM; in experiment [4] (setting [30]) it was 19.2 nM; in experiment [5] (setting [30]), at least 70500 nM; in experiment [6] (setting [30]) it was 95.5 nM.

As for RLLPSLLLLL, the Kd in experiment [10] (setting [28]) amounted to 0.585 nM; in experiment [11] (setting [28]), 0.28 nM; in experiment [9] (setting [28]), 7220 nM; in [12] (setting [28]) it was 0.915 nM.

As to SEAQMSIQLI, the Kd in [1] (setting [32]) is 30.4 nM; in [2] (setting [32]) it was 235 nM; in [3] (setting [32]) it was 1800 nM; in [4] (setting [32]) it was 936 nM; in [5] (setting [32]), 13900 nM; in experiment [6] (setting [32]), 997 nM.

Regarding SENDWFSCM, the Kd in experiment [1] (setting [37]) is 21.1 nM; in experiment [2] (setting [37]) it was 22.2 nM; in experiment [3] (setting [37]) it was 1400 nM; in experiment [4] (setting [37]) it was 164 nM; in experiment [5] (setting [37]) it was 185 nM; in [6] (setting [37]), 117 nM.

As to SMEAEMIQL, the Kd in experiment [11] (source organism: Homo sapiens) was 70 nM; in [9] (source organism: Homo sapiens) it was at least 52500 nM; in [12] (source organism: Homo sapiens), 2380 nM; in experiment [13] (source organism: Homo sapiens), 39.8 nM.

As to STCYVFGLY, the Kd in experiment [10] (setting [38]) is 6140 nM; in experiment [11] (setting [38]), 13400 nM; in experiment [19], 10700 nM; in experiment [20], at least 77500 nM; in experiment [21] it was 9930 nM; in [22], at least 73300 nM. Also, the Kd in experiment [23] is at least 38200 nM; in experiment [9] (setting [38]), 1380 nM; in experiment [12] (setting [38]), at least 10000 nM; in experiment [13] (setting [38]) it was 4160 nM; in experiment [24], 7.86 nM.

Consider TEVMPVSMA, for which the Kd in experiment [1] (setting [30]) stood at 6840 nM; in experiment [2] (setting [30]), 3850 nM; in experiment [3] (setting [30]), 15400 nM; in [4] (setting [30]), 79.7 nM; in [5] (setting [30]), 11100 nM; in experiment [6] (setting [30]), 182 nM.

Consider TSIGLICVIA, for which, in [9] (setting [27]), the Kd was 35.5 nM.

WVSGVSGNI: the Kd in experiment [9] (source organism: Dengue virus 4 Philippines/H241/1956) came out at 10.1 nM.

For the sequence YLISIFLHLV, the Kd in [10] (setting [39]) came out at 8.6 nM; in experiment [11] (setting [39]), 2.73 nM; in experiment [9] (setting [39]) it was 167 nM; in experiment [12] (setting [39]) it was 1.72 nM.
